Reference: US20240307442

What was measured:
[1] = target: collagen I
[2] = target: collagen IV
[3] = target: fibronectin

B1: Active Neutrophil Elastase (protein)
chain: IVGGRRARPHAWPFMVSLQLRGGHFCGATLIAPNFVMSAAHCVANVNVRAVRVVLGAHNLSRREPTRQVFAVQRIFENGYDPVNLLNDIVILQLNGSATINANVQVAQLPAQGRRLGNGVQCLAMGWGLLGRNRGIASVLQELNVTVVTSLCRRSNVCTLVRGRQAGVCFGDSGSPLVCNGLIHGIASFVRGGCASGLYPDAFAPVAQFVNWIDSIIQ
- Western Blot of ECM molecules degraded by culture media [1]: NE released by GCC CAR CK+NE cells can degrade ECM molecules when GCC CAR CK+NE Cells are co-cultured with the substrate cells
- Western Blot of ECM molecules degraded by culture media [2]: NE released by GCC CAR CK+NE cells can degrade ECM molecules when GCC CAR CK+NE Cells are co-cultured with the substrate cells
- Western Blot of ECM molecules degraded by culture media [3]: NE released by GCC CAR CK+NE cells can degrade ECM molecules when GCC CAR CK+NE Cells are co-cultured with the substrate cells
